Data from patent US20260071002A1 (Hoffmann-La Roche, published 2026).
Numbering of substitutions follows the chain as printed. Where two headings read alike, the source gives them in different places.

T1: human CEACAM5 (human, UniProt P06731 35-685)
T1 construct: whole, on cells; Target on MKN-45 (DSMZ ACC409) and LS180 (ATCC CL-187) cells; also called carcinoembryonic antigen-related cell adhesion molecule 5; CD66e
T1 sequence (looked up): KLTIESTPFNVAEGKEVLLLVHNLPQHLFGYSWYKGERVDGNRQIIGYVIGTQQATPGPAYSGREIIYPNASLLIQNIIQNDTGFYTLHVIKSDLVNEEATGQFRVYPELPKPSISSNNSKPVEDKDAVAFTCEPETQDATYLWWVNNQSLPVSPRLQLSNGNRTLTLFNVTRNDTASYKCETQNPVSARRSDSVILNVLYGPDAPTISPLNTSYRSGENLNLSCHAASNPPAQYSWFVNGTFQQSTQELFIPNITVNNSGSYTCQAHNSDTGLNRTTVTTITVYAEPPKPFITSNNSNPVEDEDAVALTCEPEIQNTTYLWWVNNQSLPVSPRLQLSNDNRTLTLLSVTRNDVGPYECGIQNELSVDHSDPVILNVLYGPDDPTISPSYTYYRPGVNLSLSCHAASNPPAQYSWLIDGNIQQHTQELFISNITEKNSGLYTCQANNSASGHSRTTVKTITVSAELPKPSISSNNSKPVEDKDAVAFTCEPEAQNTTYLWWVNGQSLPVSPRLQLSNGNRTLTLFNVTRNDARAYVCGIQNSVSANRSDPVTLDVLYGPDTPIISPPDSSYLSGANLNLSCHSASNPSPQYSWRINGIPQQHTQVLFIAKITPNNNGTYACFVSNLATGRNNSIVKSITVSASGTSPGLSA

T2: human CEACAM1 (human, UniProt P13688 35-526)
T2 construct: whole, on cells; also called CHO-CEACAM1
T2 sequence (looked up): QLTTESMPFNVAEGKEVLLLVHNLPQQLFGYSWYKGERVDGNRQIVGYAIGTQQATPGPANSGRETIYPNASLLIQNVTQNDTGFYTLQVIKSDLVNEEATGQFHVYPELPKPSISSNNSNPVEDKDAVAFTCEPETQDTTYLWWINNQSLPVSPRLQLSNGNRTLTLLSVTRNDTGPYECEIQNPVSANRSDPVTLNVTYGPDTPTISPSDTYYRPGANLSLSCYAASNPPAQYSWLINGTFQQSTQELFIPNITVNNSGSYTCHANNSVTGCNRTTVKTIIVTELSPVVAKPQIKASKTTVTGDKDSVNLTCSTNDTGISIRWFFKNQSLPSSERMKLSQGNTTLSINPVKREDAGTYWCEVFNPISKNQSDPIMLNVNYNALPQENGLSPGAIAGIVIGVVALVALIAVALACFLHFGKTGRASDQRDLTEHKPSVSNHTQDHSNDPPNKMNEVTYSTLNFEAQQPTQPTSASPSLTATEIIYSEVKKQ

T3: human CEACAM6 (human, UniProt P40199 35-320)
T3 construct: whole, on cells; also called CHO-CEACAM6
T3 sequence (looked up): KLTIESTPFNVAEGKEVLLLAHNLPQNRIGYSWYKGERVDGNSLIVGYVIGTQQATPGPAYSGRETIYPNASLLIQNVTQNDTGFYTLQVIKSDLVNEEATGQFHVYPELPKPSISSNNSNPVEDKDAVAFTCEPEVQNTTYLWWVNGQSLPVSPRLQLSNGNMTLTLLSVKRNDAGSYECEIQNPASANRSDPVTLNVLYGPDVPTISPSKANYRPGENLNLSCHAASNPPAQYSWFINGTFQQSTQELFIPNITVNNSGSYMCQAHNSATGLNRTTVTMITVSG

B1: T84.66-LCHA (P1AH2338) (antibody, V domains shown)
VH: QVQLVQSGAEVKKPGSSVKVSCKASGFNIKDTYMHWVRQAPGQGLEWMGRIDPANGNSKYVPKFQGRVTITADTSTSTAYMELSSLRSEDTAVYYCAPFGYYVSDYAMAYWGQGTLVTVSS
VL: EIVLTQSPATLSLSPGERATLSCRAGESVDIFGVGFLHWYQQKPGQAPRLLIYRASNRATGIPARFSGSGSGTDFTLTISSLEPEDFAVYYCQQTNEDPYTFGQGTKLEIK
notes: also called humanized variant 1
B2: P1AH2369 (antibody, V domains shown)
VH: B1 VH
VL: B1 VL with V34N, G35S
B3: P1AI5015 (antibody, human IgG1, V domains shown)
VH: EVQLVESGGGLVQPGGSLRLSCAASGFNIKDTYMHWVRQAPGKGLEWVGRIDPANGNSKYADSVKGRFTISADTSKNTAYLQMNSLRAEDTAVYYCAPFGYYVSDYAMAYWGQGTTVTVSS
VL: B1 VL with A55G, N96Y, D98Y
B4: P1AH2368 (antibody, V domains shown)
VH: B1 VH
VL: B1 VL with I31S, F32Y
B5: P1AH2349 (antibody, human IgG1, V domains shown)
VH: B3 VH
VL: B1 VL
notes: also called rehumanized improved expression variant
B6: P1AI5016 (antibody, human IgG1, V domains shown)
VH: B3 VH
VL: B1 VL with A55G, N96V, D98Y
B7: P1AI5031 (antibody, human IgG1, V domains shown)
VH: B3 VH
VL: B1 VL with A55G, A59M
notes: also called 24_A55M
B8: P1AH2370 (antibody, human IgG1, name in Kabat numbering, V domains shown)
VH: B1 VH
VL: B1 VL with D30S
B9: P1AH2364 (antibody, human IgG1, name in Kabat numbering, V domains shown)
VH: B1 VH
VL: B1 VL with A55G
B10: P1AH2373 (antibody, human IgG1, name in Kabat numbering, V domains shown)
VH: B1 VH
VL: B1 VL with D98N
B11: P1AI5018 (antibody, human IgG1, V domains shown)
VH: B3 VH
VL: B1 VL with A55G, N96T, D98Y
B12: P1AH2359 (antibody, human IgG1, name in Kabat numbering, V domains shown)
VH: B1 VH with E82Q
VL: B1 VL
B13: P1AH2361 (antibody, human IgG1, name in Kabat numbering, V domains shown)
VH: B1 VH with K30T
VL: B1 VL
B14: P1AI5014 (antibody, human IgG1, V domains shown)
VH: B3 VH
VL: B1 VL with A55G
B15: P1AH2366 (antibody, human IgG1, name in Kabat numbering, V domains shown)
VH: B1 VH
VL: B1 VL with F32Y
notes: Kabat positions
B16: P1AI5017 (antibody, human IgG1, V domains shown)
VH: B3 VH
VL: B1 VL with A55G, N96S, D98Y

Legend:
human CEACAM5 [1] = target: T1, human CEACAM5; assay: FACS on MKN-45 cells expressing human CEACAM5
Experimental: The cellular binding assay was performed as follows.
(§1) 10 μl of a 1×10⁴ MKN-45 (DSMZ ACC409) cell suspension in assay buffer was seeded in all Wells of a 384 well polypropylene plate (Weidmann #23490-101). Then 10 μl of antibodies diluted in assay buffer (double concentrated), at a start concentration of 100 μg/ml, serially diluted 1:4 were added to the plate. After 90 minutes incubation at 4° C., 60 μl assay buffer was added followed by a centrifuge step (330×g, 5 min) and an aspirating step (BioTek washer 405H) where 60 μl of supernatant were discarded. 20 μl of detection antibody (Alpaca anti rabbit IgG Chromotek #srbAF647-1) diluted in assay buffer (double concentrated) to a final concentration of 0.5 μg/ml was added to all Wells followed by 1 hour incubation time at room temperature. The cells were then subjected to two washing steps with 40 μl and 60 μl assay buffer as described above and then resuspended in 20 μl assay buffer. Cell binding was measured on an iQue Screener Plus high throughput FACS device from Sartorius/Intellicyt.

human CEACAM5 [2] = target: T1, human CEACAM5; assay: FACS on MKN-45 cells expressing human CEACAM5; remark: listed apart in the source
Experimental: as §1

human CEACAM1 = target: T2, human CEACAM1; assay: FACS on CHO cells overexpressing human CEACAM1
Experimental: (§2) Viability of CHO-CEACAM1 (CHO cells overexpressing human CEACAM1) and CHO-CEACAM6 (CHO cells overexpressing human CEACAM6) cells was checked. Then 100 μl of re-suspended target cells were seeded into a U-bottom plate (100′000 cells/well). The antibodies were diluted in FACS buffer. The plates were centrifuged for 4 min at 400×g and supernatant was removed. Then 25 µl/well of the diluted antibodies were added to the cells. The cells were incubated for 45 min at 4° C. After the incubation, cells were washed twice and 25 μl/well of diluted (1/100 in FACS buffer) PE anti-human Fc secondary antibody (Jackson Immuno Research, #109-116-170) or the directly labeled CD66 antibody (Clone B1.1/CD66, BD Bioscience, #551480) was added to the cells. The cells were incubated for 45 min at 4° C. After the incubation, cells were washed twice. Then cells were re-suspended in 150 μl/well of FACS buffer. Cell binding was measured on the BD LSRFortessa Flow Cytometer, the same day.

human CEACAM6 = target: T3, human CEACAM6; assay: FACS on CHO cells overexpressing human CEACAM6
Experimental: as §2

Row | Binder | EC50 (human CEACAM5 [1]) [nM] | EC50 (human CEACAM5 [2]) [µg/mL] | binding result (human CEACAM1) | binding result (human CEACAM6)
1 | B1 | 5.3 | 0.989 |  | 
2 | B2 | 5.5 |  |  | 
3 | B3 |  | 0.483 | no binding | no binding
4 | B4 | 2.5 |  |  | 
5 | B5 | 7.2 | 1.11 |  | 
6 | B6 |  | 0.588 | no binding | no binding
7 | B7 |  | 2.42 | no binding | no binding
8 | B8 | 3.1 |  |  | 
9 | B9 | 1.9 |  |  | 
10 | B10 | 2.5 |  |  | 
11 | B11 |  | 0.65 | no binding | no binding
12 | B12 | 12.9 |  |  | 
13 | B13 | 21.9 |  |  | 
14 | B14 |  | 1.53 | no binding | no binding
15 | B15 | 2.7 |  |  | 
16 | B16 |  | 0.762 | no binding | no binding
